Experimental data published in PMC12363165 (2025).

B1: Vpu with LgBiT fused to its C-terminus (pBiT1.1-C-vpu) [HIV-1] / RBM10 fused to SmBiT (pBiT2.1-C-rbm10) [human] (parent complex)
chain 1: MQPIQIAIAALVVAIIIAIVVWSIVIIEYRKILRQRKIDRLIDRLIERAEDSGNESEGEISALVEMGVEMGHHAPWDIDDL
chain 2: MEYERRGGRGDRTGRYGATDRSQDDGGENRSRDHDYRDMDYRSYPREYGSQEGKHDYDDSSEEQSAEDSYEASPGSETQRRRRRRHRHSPTGPPGFPRDGDYRDQDYRTEQGEEEEEEEDEEEEEKASNIVMLRMLPQAATEDDIRGQLQSHGVQAREVRLMRNKSSGQSRGFAFVEFSHLQDATRWMEANQHSLNILGQKVSMHYSDPKPKINEDWLCNKCGVQNFKRREKCFKCGVPKSEAEQKLPLGTRLDQQTLPLGGRELSQGLLPLPQPYQAQGVLASQALSQGSEPSSENANDTIILRNLNPHSTMDSILGALAPYAVLSSSNVRVIKDKQTQLNRGFAFIQLSTIVEAAQLLQILQALHPPLTIDGKTINVEFAKGSKRDMASNEGSRISAASVASTAIAAAQWAISQASQGGEGTWATSEEPPVDYSYYQQDEGYGNSQGTESSLYAHGYLKGTKGPGITGTKGDPTGAGPEASLEPGADSVSMQAFSRAQPGAAPGIYQQSAEASSSQGTAANSQSYTIMSPAVLKSELQSPTHPSSALPPATSPTAQESYSQYPVPDVSTYQYDETSGYYYDPQTGLYYDPNSQYYYNAQSQQYLYWDGERRTYVPALEQSADGHKETGAPSKEGKEKKEKHKTKTAQQIAKDMERWARSLNKQKENFKNSFQPISSLRDDERRESATADAGYAILEKKGALAERQHTSMDLPKLASDDRPSPPRGLVAAYSGESDSEEEQERGGPEREEKLTDWQKLACLLCRRQFPSKEALIRHQQLSGLHKQNLEIHRRAHLSENELEALEKNDMEQMKYRDRAAERREKYGIPEPPEPKRRKYGGISTASVDFEQPTRDGLGSDNIGSRMLQAMGWKEGSGLGRKKQGIVTPIEAQTRVRGSGLGARGSSYGVTSTESYKETLHKTMVTRFNEAQ

Variants of: B1
Assay: NanoBiT luciferase complementation reporter assay; HEK293T cells, co-transfection, read after 2 days; parent: 1; read off a plot

Variant	ratio to parent
chain 1 D77A	~0.6
chain 1 V25A	~0.41
chain 1 I26A	~0.56
chain 1 R34A	~0.63
chain 1 H73A	~0.98
